The target in experiment [1] is streptavidin-agarose (immobilized streptavidin) (Streptomyces avidinii) (UniProt P22629). Kind of experiment: affinity chromatography: ammonium sulfate fraction passed over streptavidin-agarose.
The target is the same in experiment [2]. Kind of experiment: affinity chromatography on streptavidin-agarose.

Data on one substance can be found in US6046014.

“Strep-tagged oat phytochrome A (ASPHYA-ST)” registered an efficiency of binding in experiment [1] of 86%. Also, the binding capacity (µg ASPHYA-ST per milliliter bed volume) in experiment [2] turned out to be 200.
